Laboratory results reported in US7087420B1, “Microbial β-glucuronidase genes, gene products and uses thereof” (Cambia, priority 1997, dated 2006).
Positions count from the first letter of the chain named.

What was measured:
Assay type in all cases: cell-based
yeast = experiment: GUS activity of transfectants with expression vectors, yeast host; design: key: all tested transfectants exhibit GUS activity (indicated by a +)
Experimental: (§1) A series of expression vector constructs of three different GUS genes, E. coli GUS, Staphylococcus GUS, and the AO version of codon-optimized Staphylococcus GUS, are prepared and tested for enzymatic activity in E. coli, yeast, and plants (rice, Millin variety). […] The E. coli vector contains a sequence encoding a pelB signal peptide, the yeast vectors contain a sequence encoding either an invertase or Mat alpha signal peptide, and the plant vectors contain a sequence encoding either a glycine-rich protein (GRP) or extensin signal peptide.
(§2) The GUS genes are cloned into each of these vectors using standard recombinant techniques of isolation of a GUS-gene containing fragment and ligation into an appropriately restricted vector. The recombinant vectors are then transfected into the appropriate host and transfectants are tested for GUS activity.
(§3) Moreover, similar results are obtained regardless of the presence or absence of a signal peptide.

[1] = test system: plants (rice, Millin variety); experiment: GUS activity of transfectants with expression vectors, plant host; design: key: all tested transfectants exhibit GUS activity (indicated by a +)
Experimental: as §1, §2, §3

E. coli = experiment: GUS activity of transfectants with expression vectors, E. coli host; design: key: all tested transfectants exhibit GUS activity (indicated by a +); details: No SP (signal peptide)
Experimental: as §1, §2, §3

KW1 cells = experiment: Cellular localization: GUS activity in periplasm fraction, β-gal activity subtracted; details: percent of total activity in periplasm fraction, expressed in E. coli, β-gal background subtracted
Source text: Secretion index maybe calculated as the percentage of total GUS activity in periplasm or other extracellular environment less the percentage of total β-galactosidase activity found in the same extracellular environment.
Secretion of the enzyme may be verified by assaying for GUS activity in the extracellular environment. If the cells secreting GUS are gram-positive bacteria, yeasts, molds, plants, or other organisms with cell walls, activity may be assayed in the culture medium and in a cell extract, however, the protein may not be transported through the cell wall. Thus, if no or low activity of a secreted form of GUS is found in the culture medium, protoplasts made by osmotic shock or enzymatic digestion of the cell wall or other suitable procedure and the supernatant are assayed for GUS activity. […]
Cellular fractions (e.g., periplasm, spheroplast, supernatant, etc.) are prepared from KW1 cells transformed with pRAJa17.1 or a subfragment that contains the GUS gene and from E. coli cells that express β-glucuronidase. GUS activity and β-galactosidase (β-gal) activity is determined for each fraction. The percent of total activity in the periplasm fraction for GUS and β-gal (a non-secreted protein) are calculated; the amount of β-gal activity is considered background and thus is subtracted from the amount of β-glucuronidase activity. […]

KW1 = experiment: X-GlcA staining of low-cysteine E. coli GUS muteins in KW1; details: pBS backbone in KW1, staining with X-GlcA
Source text: Single and multiple Cys muteins are constructed by site-directed mutagenesis techniques. Eight of the nine cysteine residues in E. coli GUS are changed to the corresponding residue found in human GUS based on alignment of the two protein sequences. One of the E. coli GUS cysteine residues, amino acid 463, aligns with a cysteine residue in human GUS and was not altered. The corresponding amino acids between E. coli GUS and human GUS are shown below.
The mutein GUS genes are cloned into a pBS backbone. The mutations are confirmed by diagnostic restriction site changes and by DNA sequence analysis. Recombinant vectors are transfected into KW1 and GUS activity assayed by staining with X-GlcA (5-bromo-4-chloro-3-indolyl-β-D-glucuronide).

B1: E. coli GUS: E. coli β-glucuronidase encoded by gusA, 603 amino acids, used as comparison standard (protein, UniProt P05804 1-603, looked up)
Beta-glucuronidase: MLRPVETPTREIKKLDGLWAFSLDRENCGIDQRWWESALQESRAIAVPGSFNDQFADADIRNYAGNVWYQREVFIPKGWAGQRIVLRFDAVTHYGKVWVNNQEVMEHQGGYTPFEADVTPYVIAGKSVRITVCVNNELNWQTIPPGMVITDENGKKKQSYFHDFFNYAGIHRSVMLYTTPNTWVDDITVVTHVAQDCNHASVDWQVVANGDVSVELRDADQQVVATGQGTSGTLQVVNPHLWQPGEGYLYELCVTAKSQTECDIYPLRVGIRSVAVKGEQFLINHKPFYFTGFGRHEDADLRGKGFDNVLMVHDHALMDWIGANSYRTSHYPYAEEMLDWADEHGIVVIDETAAVGFNLSLGIGFEAGNKPKELYSEEAVNGETQQAHLQAIKELIARDKNHPSVVMWSIANEPDTRPQGAREYFAPLAEATRKLDPTRPITCVNVMFCDAHTDTISDLFDVLCLNRYYGWYVQSGDLETAEKVLEKELLAWQEKLHQPIIITEYGVDTLAGLHSMYTDMWSEEYQCAWLDMYHRVFDRVSAVVGEQVWNFADFATSQGILRVGGNKKGIFTRDRKPKSAAFLLQKRWTGMNFGEKPQQGGKQ
- GUS activity (yeast; Invertase signal peptide): +
- GUS activity (yeast; Mat α signal peptide): +
- GUS activity (yeast; No SP): +
- GUS activity ([1]; Extensin signal peptide): +
- GUS activity ([1]; GRP signal peptide): +
- GUS activity ([1]; No SP): +
- GUS activity (E. coli): +
- GUS activity found in the periplasm (KW1 cells): less than 10%

B2: D, E: E. coli GUS mutein, Cys 253 to Glu and Cys 262 to Ser (protein, UniProt P05804 1-603, looked up, variant C253E C262S)
Beta-glucuronidase: B1 Beta-glucuronidase with C253E, C262S
- GUS activity (KW1): Yes
